{"source": "patent US20250121082A1", "about": "(SHANDONG BOAN BIOTECHNOLOGY, published 2025)", "binders": {"B1": {"name": "CA149-BNLD11 (antibody, human IgG1, kappa, V domains shown)", "VH": "EVQLVESGGGVVQPGRSLRLSCAASGFTFSSYAMHWVRQAPGKGLEWVAVISFDGSNKYYTDSVKGRFTISRDNSKNTLYLQMNSLRAEDTAVYYCAREVPYYYGSGPFDYWGQGTLVTVSS", "VL": "EIVLTQSPATLSVSPGERATLSCRASQSVSSNLAWYQQKPGQAPRHLIDGASSRASGIPDRFSGSGSGTDFTLTISRLEPEDFAVYYCQQYGSSPPFTFGPGTKVDIKR", "modifications": "BNLD11 linker-drug coupled to the TCEP-reduced antibody; sites not stated; BNLD11 linker-drug (MC-β-Ala-(glucuronide)PAB-MMAE) coupled to the TCEP-reduced antibody, average DAR 4.1; sites not stated"}}, "assay_in_all_cases": "cell-based or functional assay", "key": {"[1]": {"molecular_target": "T1, CD228 on cells stably expressing exogenous CD228 gene (MC38-CD228, A375-CD228, A549-CD228) (UniProt P08582 20-709)", "T1 sequence (looked up)": "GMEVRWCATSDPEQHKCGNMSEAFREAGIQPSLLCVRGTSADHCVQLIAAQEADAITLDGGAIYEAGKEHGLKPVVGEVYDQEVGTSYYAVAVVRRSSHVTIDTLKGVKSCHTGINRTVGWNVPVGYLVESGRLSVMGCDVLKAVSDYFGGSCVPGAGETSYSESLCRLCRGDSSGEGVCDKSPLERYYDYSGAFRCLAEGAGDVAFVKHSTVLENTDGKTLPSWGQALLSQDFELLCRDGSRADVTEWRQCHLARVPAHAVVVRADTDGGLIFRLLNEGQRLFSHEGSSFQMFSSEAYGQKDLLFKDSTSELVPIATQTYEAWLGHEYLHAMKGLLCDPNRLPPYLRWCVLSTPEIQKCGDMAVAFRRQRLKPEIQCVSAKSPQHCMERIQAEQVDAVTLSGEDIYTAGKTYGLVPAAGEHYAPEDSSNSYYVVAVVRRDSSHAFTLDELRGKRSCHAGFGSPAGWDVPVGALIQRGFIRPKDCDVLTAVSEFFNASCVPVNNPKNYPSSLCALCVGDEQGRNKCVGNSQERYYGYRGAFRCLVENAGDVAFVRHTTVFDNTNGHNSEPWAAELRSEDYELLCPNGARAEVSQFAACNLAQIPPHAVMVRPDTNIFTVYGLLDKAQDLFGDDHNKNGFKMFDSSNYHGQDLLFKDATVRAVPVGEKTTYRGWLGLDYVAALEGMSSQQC"}, "[2]": {"molecular_target": "T2, CD228 protein on human melanoma SK-MEL-5 cells (human, UniProt P08582 20-709)", "T2 sequence (looked up)": "T1 sequence (looked up)"}, "[3]": {"molecular_target": "T1, CD228 on cells stably expressing …", "remark": "listed apart in the source"}}, "note": "Read-outs that look alike come from different tables or passages of the source."}
{"binder": "B1", "values": [{"measurement": "IC50 (ng/mL), inhibition of A375-CD228 cell proliferation", "setting": "[1]", "result": 13.9, "unit": "ng/mL"}, {"measurement": "IC50 (ng/mL), inhibition of A549-CD228 cell proliferation", "setting": "[1]", "result": 15.2, "unit": "ng/mL"}, {"measurement": "IC50 (ng/mL), inhibition of SK-MEL-5 cell proliferation", "setting": "[2]", "result": 11.5, "unit": "ng/mL"}, {"measurement": "IC50 (ng/mL), inhibition of A375-CD228 cell proliferation", "setting": "[3]", "result": 61.8, "unit": "ng/mL"}, {"measurement": "IC50 (ng/mL), inhibition of MC38-CD228 cell proliferation", "setting": "[3]", "result": 102, "unit": "ng/mL"}]}
